The record followed here is article PMC9737693, “Efficient Production of Fc Fusion Proteins in the Cytoplasm of Escherichia coli: Dissecting and Mitigating Redox Heterogeneity” (International Journal of Molecular Sciences, 2022).

This data set deals with the molecule itself. Description: non-reducing SDS-PAGE; purified proteins, non-reduced and trapped with 25 mM NEM at room temperature for 10 min, SDS-PAGE, Coomassie Blue R-250; dimer seen as a covalently (disulfide) linked band.

B1: IgG1 CH2 domain with the hinge region (T106-A222) (domain or fragment, human, UniProt P01857 106-222, looked up)
chain: THTCPPCPAPELLGGPSVFLFPPKPKDTLMISRTPEVTCVVVDVSHEDPEVKFNWYVDGVEVHNAKTKPREEQYNSTYRVVSVLTVLHQDWLNGKEYKCKVSNKALPAPIEKTISKA
notes: human IgG1 hinge region and CH2 domain, residues T106-A222 of immunoglobulin heavy constant gamma 1, amplified from pAAT44; The dimer is told only for the protein made in the presence of CyDisCo (intermolecular hinge disulfide); also called IgG1 CH2 domain with hinge; hinge region fused to the CH2 domain; source: E. coli BL21(DE3) cytoplasm with CyDisCo (Erv1p, PDI), purified (cobalt IMAC)
With B1, the binding result is recorded as “binds”.
